Measured values reported in patent US6884600 (MEDICAL RESEARCH COUNCIL LONDON, dated 2005).

Tests used:
[1] = target: T1, myosin from chicken gizzard, dephosphorylated form (chicken, UniProt P10587 2-1979; P02612 2-172; P02607 2-151); test: summary of the co-sedimentation experiments
T1 construct: mature; Native protein pelleted by centrifugation; 1 µM in terms of heavy chains; also called myosin dimer
Protocol: (§1) (A); PP1_M, $M110$-(M1-S477) and GST-$M110$-(M377-K976), each at 30 nM were incubated for 15 min at 0° C. with 1 μM myosin and centrifuged. The supernatants (S), resuspended pellets (P) and the suspension before centrifugation (T, total) were electrophoresed on 12% SDS/polyacrylamide gels, transferred to nitrocellulose and immunoblotted with antibodies raised against the PP1_M holoenzyme. No protein was pelleted in the absence of myosin (not shown). The positions of the marker proteins myosin heavy chain (200 kDa), glycogen phosphorylase (97 kDa), bovine serum albumin (66 kDa), ovalbumin (43 kDa), carbonic anhydrase (29 kDa) and soybean trypsin inhibitor (20 kDa) are indicated. […] A small amount of $M110$-(R714-I1004) pelleted in the absence of myosin. […] No other protein was pelleted in the absence of myosin.
(§2) Myosin binding assays. Myosin (0.5 mg/ml, 1 µM in terms of myosin heavy chains) in 10 mM Hepes pH 7.5, 50 mM KCl, 5 mM MgCl2, 0.1% (by vol) 2-mercaptoethanol, was mixed with PP1_M, M$21$ subunit, or fragments of the M$110$ and M$21$ subunits, at the concentrations indicated in figure legends. […] Aliquots of the supernatant, the resuspended pellet and the suspension before centrifugation were either assayed for myosin P-light chain phosphatase activity or denatured in SDS and analysed by SDS/polyacrylamide gel electrophoresis.

[2] = target: T2, β isoform of PP1c released from rabbit skeletal muscle PP1G (rabbit, UniProt P62143 2-327); test: phosphatase assays and changed crystal form of PP1c
T2 construct: mature; also called PP1 catalytic subunit
T2 sequence (P62143 2-327): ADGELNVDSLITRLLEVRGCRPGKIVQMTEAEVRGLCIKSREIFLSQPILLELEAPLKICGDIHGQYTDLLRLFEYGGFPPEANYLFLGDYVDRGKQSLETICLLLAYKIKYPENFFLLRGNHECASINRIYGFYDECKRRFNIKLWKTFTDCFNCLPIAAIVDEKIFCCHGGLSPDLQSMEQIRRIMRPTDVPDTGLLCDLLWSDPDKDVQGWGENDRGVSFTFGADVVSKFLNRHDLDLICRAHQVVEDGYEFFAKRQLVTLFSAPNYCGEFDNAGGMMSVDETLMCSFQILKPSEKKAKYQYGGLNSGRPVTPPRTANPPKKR

[3] = target: T2, β isoform of PP1c released from rabbit …; test: cell-based or functional assay
[4] = target: T1, myosin from chicken gizzard, …; test: co-sedimentation with myosin, immunoblot
Protocol: as §1
(§3) Myosin binding assays. Myosin (0.5 mg/ml, 1 µM in terms of myosin heavy chains) in 10 mM Hepes pH 7.5, 50 mM KCl, 5 mM MgCl2, 0.1% (by vol) 2-mercaptoethanol, was mixed with PP1_M, M$21$ subunit, or fragments of the M$110$ and M$21$ subunits, at the concentrations indicated in figure legends. After incubation for 15 min at 0° C., the solutions were centrifuged for 2 min at 13,000×g, the supernatants removed, and the pellets washed twice in 10 mM Hepes pH 7.5, 50 mM KCl, 5 mM MgCl2, 0.1% (by vol) 2-mercaptoethanol before resuspension in 50 mM Tris-HCl pH 7.5, 0.1 mM EGTA, 0.03% (by mass) Brij 35, 0.6 M NaCl, 0.1% (by vol) 2-mercaptoethanol. Aliquots of the supernatant, the resuspended pellet and the suspension before centrifugation were either assayed for myosin P-light chain phosphatase activity or denatured in SDS and analysed by SDS/polyacrylamide gel electrophoresis.

[5] = target: T1, myosin from chicken gizzard, …; test: co-sedimentation with myosin (as PP1M lacking M21)
Protocol: The PP1 catalytic subunit (PP1c), PP1_M, or PP1_M lacking the $M21$ subunit, $PP1_M(\Delta M21)$, each at 30 nM, were incubated for 15 min at 0° C. with 1 μM myosin and centrifuged (see Methods of Example 3). […] The results shown are the average (±S.E.M.) for three separate experiments each assayed in duplicate.
as §3

[6] = target: PP1GL, glycogen-associated form of PP1 in rat hepatic glycogen-protein particles (rat); test: cell-based or functional assay
[7] = target: T1, myosin from chicken gizzard, …; test: co-sedimentation, 30 nM with 1 µM myosin, immunoblot
Protocol: as §1, §2

[8] = target: T1, myosin from chicken gizzard, …; test: co-sedimentation with myosin
[9] = target: PP1M, myosin-associated form of PP1 from chicken gizzard (chicken, UniProt P62207 2-327); test: cell-based or functional assay
PP1M, myosin-associated form of PP1 from chicken gizzard, sequence (P62207 2-327): as the sequence (P62143 2-327) above

T1 sequence (P10587 2-1979, chain 1 of 3): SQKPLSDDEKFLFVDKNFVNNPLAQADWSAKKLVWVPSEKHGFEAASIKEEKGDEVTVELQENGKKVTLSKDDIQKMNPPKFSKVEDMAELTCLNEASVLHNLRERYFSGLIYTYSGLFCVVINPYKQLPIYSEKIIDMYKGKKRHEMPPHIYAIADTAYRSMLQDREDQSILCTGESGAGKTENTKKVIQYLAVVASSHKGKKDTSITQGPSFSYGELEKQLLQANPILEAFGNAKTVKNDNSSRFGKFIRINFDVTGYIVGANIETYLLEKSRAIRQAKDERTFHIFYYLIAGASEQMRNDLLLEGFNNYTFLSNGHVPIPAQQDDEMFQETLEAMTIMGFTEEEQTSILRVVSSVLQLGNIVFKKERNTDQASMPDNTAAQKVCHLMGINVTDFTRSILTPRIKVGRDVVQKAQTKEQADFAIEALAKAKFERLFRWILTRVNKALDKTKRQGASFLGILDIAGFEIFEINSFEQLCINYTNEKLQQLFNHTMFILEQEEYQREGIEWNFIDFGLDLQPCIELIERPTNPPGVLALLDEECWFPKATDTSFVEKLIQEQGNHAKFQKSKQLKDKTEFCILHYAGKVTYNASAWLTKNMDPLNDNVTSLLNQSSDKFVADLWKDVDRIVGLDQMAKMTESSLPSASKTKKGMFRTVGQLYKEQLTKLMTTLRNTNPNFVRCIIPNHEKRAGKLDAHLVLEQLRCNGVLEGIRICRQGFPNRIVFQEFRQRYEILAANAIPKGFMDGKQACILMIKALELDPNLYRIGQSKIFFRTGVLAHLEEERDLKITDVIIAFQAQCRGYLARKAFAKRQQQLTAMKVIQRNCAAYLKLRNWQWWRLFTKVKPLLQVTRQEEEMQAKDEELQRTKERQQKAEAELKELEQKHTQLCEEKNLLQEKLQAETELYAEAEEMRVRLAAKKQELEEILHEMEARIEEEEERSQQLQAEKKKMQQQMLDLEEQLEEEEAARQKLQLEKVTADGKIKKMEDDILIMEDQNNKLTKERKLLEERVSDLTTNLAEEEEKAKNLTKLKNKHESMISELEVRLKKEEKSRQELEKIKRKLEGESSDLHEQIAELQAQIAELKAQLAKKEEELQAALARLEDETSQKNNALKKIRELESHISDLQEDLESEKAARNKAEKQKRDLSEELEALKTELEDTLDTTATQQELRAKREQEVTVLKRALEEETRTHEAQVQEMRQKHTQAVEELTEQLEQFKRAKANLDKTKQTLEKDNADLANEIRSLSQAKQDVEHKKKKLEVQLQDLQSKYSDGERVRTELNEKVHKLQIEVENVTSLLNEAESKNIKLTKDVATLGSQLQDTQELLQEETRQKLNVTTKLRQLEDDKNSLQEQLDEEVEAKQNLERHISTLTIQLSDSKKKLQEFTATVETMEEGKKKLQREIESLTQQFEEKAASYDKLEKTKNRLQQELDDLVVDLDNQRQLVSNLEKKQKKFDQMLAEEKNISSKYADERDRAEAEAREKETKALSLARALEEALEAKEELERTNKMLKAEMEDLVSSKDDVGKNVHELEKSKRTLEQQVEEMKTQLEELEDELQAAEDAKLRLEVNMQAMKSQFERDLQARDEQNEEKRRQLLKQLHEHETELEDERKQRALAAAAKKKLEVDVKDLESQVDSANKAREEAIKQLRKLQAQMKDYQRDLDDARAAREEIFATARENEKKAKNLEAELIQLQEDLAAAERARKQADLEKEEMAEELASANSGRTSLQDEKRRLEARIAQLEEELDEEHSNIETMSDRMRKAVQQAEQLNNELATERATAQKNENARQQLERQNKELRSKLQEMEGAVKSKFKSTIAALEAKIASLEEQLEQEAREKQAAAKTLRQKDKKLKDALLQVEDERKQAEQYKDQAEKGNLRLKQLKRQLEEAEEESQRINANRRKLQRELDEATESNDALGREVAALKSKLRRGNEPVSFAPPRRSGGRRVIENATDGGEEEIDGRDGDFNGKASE
T1 sequence (P02612 2-172, chain 2 of 3): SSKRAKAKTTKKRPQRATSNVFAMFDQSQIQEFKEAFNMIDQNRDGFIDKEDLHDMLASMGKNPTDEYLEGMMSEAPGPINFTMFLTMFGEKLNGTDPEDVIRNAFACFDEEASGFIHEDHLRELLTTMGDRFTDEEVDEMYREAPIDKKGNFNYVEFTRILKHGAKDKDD
T1 sequence (P02607 2-151, chain 3 of 3): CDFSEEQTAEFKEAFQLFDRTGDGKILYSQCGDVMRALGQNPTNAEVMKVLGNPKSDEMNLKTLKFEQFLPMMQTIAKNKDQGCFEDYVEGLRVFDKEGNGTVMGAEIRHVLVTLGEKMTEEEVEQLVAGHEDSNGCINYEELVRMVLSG

B1: M110-(R714-I1004), C-terminal 291 residues of the chicken gizzard M110 subunit (other)
chain: RSTRTREQENEEKEKEEKEKQDKEKQEEKKESETKDDDYRQRYSRTVEEPYHRYRPTSTSTSTSSTSSLSTSTSSLSSSSQLNRPNSLIGITSAYSRSGTKESEREGGKKEEEKEEDKSQPKSIRERRRPREKRRSTGVSFWTQDSDENEQEHQSDSEEGTNKKETQSDSLSRYDTGSLSVSSGDRYDSAQGRSGSQSYLEDRKPYCSRLEKEDSTDFKKLYEQILAENEKLKAQLHDTNMELTDLKLQLEKTTQRQERFADRSLLEMEKRVSGKSQYLLGGKKSSRKKDI
notes: Expressed from pT7-7
Question: Does B1 bind [1]?
Answer: binds

B2: GM-(G63-K80) synthetic peptide (peptide)
peptide: GRRVSFADNFGFNLVSVK
notes: also called peptide 63-80 of GM
Question: Does B2 bind [2]?
Answer: binds

B3: M110[M1-K35] synthetic peptide (peptide)
peptide: MKMADAKQKRNEQLKRWIGSETDLEPPVVKRQKTK
Question: How did the “effectiveness at activating the myosin light chain phosphatase activity of PP1c relative to M110[1-38]” value [3] turn out when B3 was run?
Answer: ≥ 10000 fold

B4: GM-(G63-N75) synthetic peptide (peptide)
peptide: GRRVSFADNFGFN
notes: 13-residue peptide co-crystallised with PP1γ1; also called GM[63-75]; GM peptide
Question: Does B4 bind [2]?
Answer: binds

B5: M110-(K933-I1004), C-terminal 72 residues of the chicken gizzard M110 subunit, released from MBP with Factor Xa (other)
chain: KLYEQILAENEKLKAQLHDTNMELTDLKLQLEKTTQRQERFADRSLLEMEKRVSGKSQYLLGGKKSSRKKDI
notes: also called 8.5 kDa M110-(K933-I1004) fragment
Question: Does B5 bind [4]?
Answer: no binding (tested: 100 nM with 1 µM myosin)

B6: M110 subunit of chicken gizzard PP1M, full length (other)
chain: MKMADAKQKRNEQLKRWIGSETDLEPPVVKRKKTKVKFDDGAVFLAACSSGDTEEVLRLLERGADINYANVDGLTALHQACIDDNVDMVKFLVENGANINQPDNEGWIPLHAAASCGYLDIAEYLISQGAHVGAVNSEGDTPLDIAEEEAMEELLQNEVNRQGVDIEAARKEEERIMLRDARQWLNSGHINDVRHAKSGGTALHVAAAKGYTEVLKLLIQARYDVNIKDYDGWTPLHAAAHWGKEEACRILVENLCDMEAVNKVGQTAFDVADEDILGYLEELQKKQNLLHSEKREKKSPLIESTANLDNNQTQKTFKNKETLIMEQEKNASSIESLEHEKADEEEEGKKDESSCSSEEEEDDDSESEAETDKAKTLANANTTSTQSASMTAPSVAGGQGTPTSPLKKFPTSTTKVSPKEEERKDESPASWRLGLRKTGSYGALAEITASKEAQKEKDSAGVIRSASSPRLSSSLDNKEKEKDGKGTRLAYVAPTIPRRLASTSDIDEKENRDSSASSIRSGSSYARRKWEEDVKKNSLNEGPTSLNTSYQRSGSFGRRQDDLVSSNVPSTASTVTSSAGLQKTLPASANTTTKSTTGSTSAGVQSSTSNRLWAEDSTEKEKDSVPTAVTVPVAPSVVNAAATTTAMTTATSGTVSSTSEVRERRRSYLTPVRDEESESQRKARSRQARQSRRSTQGVTLTDLQEAEKTIGRSRSTRTREQENEEKEKEEKEKQDKEKQEEKKESETKDDDYRQRYSRTVEEPYHRYRPTSTSTSTSSTSSLSTSTSSLSSSSQLNRPNSLIGITSAYSRSGTKESEREGGKKEEEKEEDKSQPKSIRERRRPREKRRSTGVSFWTQDSDENEQEHQSDSEEGTNKKETQSDSLSRYDTGSLSVSSGDRYDSAQGRSGSQSYLEDRKPYCSRLEKEDSTDFKKLYEQILAENEKLKAQLHDTNMELTDLKLQLEKTTQRQERFADRSLLEMEKRVSGKSQYLLGGKKSSRKKDI
notes: Native subunit, met as the M110 band of blotted PP1M or inside PP1M; also called 110 kDa subunit; Ch1
Question: Does B6 bind [5]?
Answer: binds

B7: M110-(M1-A150), released from GST with thrombin (other)
chain: GSPGMKMADAKQKRNEQLKRWIGSETDLEPPVVKRQKTKVKFDDGAVFLAACSSGDTDEVLKLLHRGADINYANVDGLTALHQACIDDNVDMVKFLVENGANINQPDNEGWIPLHAAASCGYLDIAEFLIGQGAHVGAVNSEGDTPLDIAEEEA
Question: How did the “concentration needed to modify the specificity of PP1, relative to M110-(M1-E309)” value [3] turn out when B7 was run?
Answer: 10 fold

B8: GST-M21 (other, not shown: a dimerising Fc or GST; small tags and cut ends)
chain: MSSLFTRSKEYTRSRKSQSDSPPSSPSPIAKTLRHERLSRLEAATTPATSDSYSDRASSRSSAYSRRENRLAALSSRAEEESNRDYKKLYESALSENQKLKSKLQEAQLELADIKSKLEKAAQQKHEKTSDRSSMLEMEKREKRALERKLSEMEEEMKILTELKSDNQRLKDENGALIRVISKLSK
notes: also called undegraded GST-M21 (47 kDa)
Question: Does B8 bind [4]?
Answer: binds

B9: M110-(M1-F38) synthetic peptide (peptide)
peptide: MKMADAKQKRNEQLKRWIGSETDLEPPVVKRQKTKVKF
Question: B9 was tested. Which “concentration for half maximal activation relative to M110-(M1-E309)” value [3] did it give?
Answer: ≥ 100 fold

Question: And the “maximal activation of the myosin light chain phosphatase activity of PP1c” value [3]?
Answer: 3 fold

Question: And the “phosphorylase phosphatase activity of PP1GL at 10 µM peptide” value [6]?
Answer: 3.5 fold

B10: GST-M110-(M377-K976), undegraded (other)
chain: MASVTNAHTASTQAAPAAVTTPTLSSNQGTPTSPVKKFPTSTTKISPKEEERKDESPASWRLGLRKTGSYGALAEITASKEAQKEKDTAGVIRSASSPRLSSSLDNKEKEKDNKGTRLAYVAPTIPRRLGSTSDIEEKENRESSNLRTSSSYTRRKWEDDLKKNSSINEGSTYHRSTSNRLWAEDSTEKEKDSAPTAATILVAPTVVSAAASSTTALTTTTAGTLSSTSEVRERRRSYLTPVRDEESESQRKARSRQARQSRRSTQGVTLTDLQEAEKTIGRSRSTRTREQENEEKDKEEKEKQDKEKQEEKKESEVSREDEYKQKYSRTYDETYARYRPVSTSSSSTPSSSSLSTLGSSLYASSQLNRPNSLVGITSAYSRGLTKDNEREGEKKEEEKEGEDKSQPKSIRERRRPREKRRSTGVSFWTQDSDENEQERQSDTEDGSSKRDTQTDSVSRYDSSSTSSSDRYDSLLGRSASYSYLEERKPYGSRLEKDDSTDFKKLYEQILAENEKLKAQLHDTNMELTDLKLQLEKATQRQERFADRSLLEMEKRERRALERRISEMEEELKMLPDLKADNQRLKDENGALIRVISKLSK
notes: also called C-terminal 600 residues of the M110 subunit from rat aorta; not shown: glutathione-S-transferase of vector pGEX-KG with the vector linker
Question: Does B10 bind [7]?
Answer: binds

B11: GST-M110-(M1-S477) (other)
chain: MKMADAKQKRNEQLKRWIGSETDLEPPVVKRQKTKVKFDDGAVFLAACSSGDTDEVLKLLHRGADINYANVDGLTALHQACIDDNVDMVKFLVENGANINQPDNEGWIPLHAAASCGYLDIAEFLIGQGAHVGAVNSEGDTPLDIAEEEAMEELLQNEVNRQGVDIEAARKEEERIMLRDARQWLNSGHISDVRHAKSGGTALHVAAAKGYTEVLKLLIQAGYDVNIKDYDGWTPLHAAAHWGKEEACRILVDNLCDMETVNKVGQTAFDVADEDILGYLEELQKKQNLLHSEKRDKKSPLIESTANMENNQPQKTFKNKETLIIEPEKNASRIESLEQEKADEEEEGKKDESSCSSEEDEEDDSESEAETDKTKPMASVTNAHTASTQAAPAAVTTPTLSSNQGTPTSPVKKFPTSTTKISPKEEERKDESPASWRLGLRKTGSYGALAEITASKEAQKEKDTAGVIRSASSPRLSSAANSISSLIHRD
notes: not shown: glutathione-S-transferase of vector pGEX-KG with the vector linker (thrombin site)
Question: Does B11 bind [8]?
Answer: no binding

B12: GST-M110-(M1-E309), GST tag not cleaved (other)
chain: MKMADAKQKRNEQLKRWIGSETDLEPPVVKRQKTKVKFDDGAVFLAACSSGDTDEVLKLLHRGADINYANVDGLTALHQACIDDNVDMVKFLVENGANINQPDNEGWIPLHAAASCGYLDIAEFLIGQGAHVGAVNSEGDTPLDIAEEEAMEELLQNEVNRQGVDIEAARKEEERIMLRDARQWLNSGHISDVRHAKSGGTALHVAAAKGYTEVLKLLIQAGYDVNIKDYDGWTPLHAAAHWGKEEACRILVDNLCDMETVNKVGQTAFDVADEDILGYLEELQKKQNLLHSEKRDKKSPLIESTANMEA
notes: as for B11
Question: Does B12 bind [8]?
Answer: no binding

B13: M110-(M1-S477), released from GST with thrombin (other)
chain: GSPGMKMADAKQKRNEQLKRWIGSETDLEPPVVKRQKTKVKFDDGAVFLAACSSGDTDEVLKLLHRGADINYANVDGLTALHQACIDDNVDMVKFLVENGANINQPDNEGWIPLHAAASCGYLDIAEFLIGQGAHVGAVNSEGDTPLDIAEEEAMEELLQNEVNRQGVDIEAARKEEERIMLRDARQWLNSGHISDVRHAKSGGTALHVAAAKGYTEVLKLLIQAGYDVNIKDYDGWTPLHAAAHWGKEEACRILVDNLCDMETVNKVGQTAFDVADEDILGYLEELQKKQNLLHSEKRDKKSPLIESTANMENNQPQKTFKNKETLIIEPEKNASRIESLEQEKADEEEEGKKDESSCSSEEDEEDDSESEAETDKTKPMASVTNAHTASTQAAPAAVTTPTLSSNQGTPTSPVKKFPTSTTKISPKEEERKDESPASWRLGLRKTGSYGALAEITASKEAQKEKDTAGVIRSASSPRLSSAANSISSLIHRD
Question: Does B13 bind [4]?
Answer: no binding (tested: 30 nM with 1 µM myosin)

B14: rabbit GM-(G63-T93) synthetic peptide (peptide)
peptide: GRRVSFADNFGFNLVSVKEFDTWELPSVSTT
Question: How did the “phosphorylase phosphatase activity of PP1GL” value [6] turn out when B14 was run?
Answer: 6 fold

Question: And the “phosphorylase phosphatase activity of PP1M at 10 µM peptide” value [9]?
Answer: ~7 fold
